{
  "source": "paper PMC7515715",
  "about": "(Nucleic Acids Research, 2020)",
  "target": "the molecule itself",
  "experiment": "cryo-EM structure",
  "data": [
    {"protein": "E. coli stringent starvation protein A (SspA), wild type (natural protein) MAVAANKRSVMTLFSGPTDIYSHQVRIVLAEKGVSFEIEHVEKDNPPQDLIDLNPNQSVPTLVDRELTLWESRIIMEYLDERFPHPPLMPVYPVARGESRLYMHRIEKDWYTLMNTIINGSASEADAARKQLREELLAIAPVFGQKPYFLSDEFSLVDCYLAPLLWRLPQLGIEFSGPGAKELKGYMTRVFERDSFLASLTEAEREMRLGRS", "values": [
      {"measurement": "stoichiometry N", "result": 2}
    ]}
  ]
}
